Columns and labels:
Assay in all cases: cell-based or functional assay
[1] = biological target: HIV-1 Env of NIH-097_6811.v7.c18 (HIV-1)
[2] = biological target: HIV-1 Env of pseudovirus NIH-077_BJOX009000.02.4 (HIV-1)
[3] = biological target: HIV-1 Env of pseudovirus NIH-016_SC05.8C11.2344 (HIV-1)
[4] = biological target: HIV-1 Env of NIH-001_6535.3 (HIV-1)
[5] = biological target: HIV-1 Env of pseudovirus NAC_JRFL (HIV-1)
[6] = biological target: HIV-1 Env of NIH-029_HIV-001428.2.42 (HIV-1)
[7] = biological target: HIV-1 Env of NAC_TRJO.58 (HIV-1)
[8] = biological target: HIV-1 Env of pseudovirus NIH-002_QHO692 .42 (HIV-1)
[9] = biological target: HIV-1 Env of pseudovirus NIH-029_HIV-001428.2.42 (HIV-1)
[10] = biological target: HIV-1 Env of NAC_92BR020 (HIV-1)
[11] = biological target: HIV-1 Env of pseudovirus NIH-073_C3347.c11 (HIV-1)
[12] = biological target: HIV-1 Env of pseudovirus NAC_DH12 (HIV-1)
[13] = biological target: HIV-1 Env of pseudovirus NIH-108_T235.47 (HIV-1)
[14] = biological target: HIV-1 Env of pseudovirus NIH-096_6952.v1.c20 (HIV-1)
[15] = biological target: HIV-1 Env of pseudovirus NIH-089_3016.v5.c45 (clade D) (HIV-1)
[16] = biological target: HIV-1 Env of isolate NIH-082_X1193 c1 (HIV-1)
[17] = biological target: HIV-1 Env of isolate NIH-090_A07412M1.vrc12 (HIV-1)
[18] = biological target: HIV-1 Env of pseudovirus NIH-032_HIV-16845.2.22 (HIV-1)
[19] = biological target: HIV-1 Env of NAC_89.6 (HIV-1)
[20] = biological target: HIV-1 Env of pseudovirus NAC_89.6 (HIV-1)
[21] = biological target: HIV-1 Env of pseudovirus NIH-012_1012.11.TC21.3257 (HIV-1)
[22] = biological target: HIV-1 Env of NIH-004_PVO.4 (HIV-1)
[23] = biological target: HIV-1 Env of pseudovirus NIH-056_Q168ENVa2 (HIV-1)
[24] = biological target: HIV-1 Env of pseudovirus NIH-076_CNE5 (HIV-1)
[25] = biological target: HIV-1 Env of pseudovirus NIH-054_CNE53 (HIV-1)
[26] = biological target: HIV-1 Env of NAC_JRCSF (HIV-1) (UniProt P20871)
[27] = biological target: HIV-1 Env of isolate NIH-089_3016.v5.c45 (HIV-1)
[28] = biological target: HIV-1 Env of pseudovirus NIH-031_HIV-16055.2.3 (HIV-1)
[29] = biological target: HIV-1 Env of NIH-040_Ce703010054 2A2 (HIV-1)
[30] = biological target: HIV-1 Env of NIH-021_ZM214M.PL15 (HIV-1)
[31] = biological target: HIV-1 Env of NAC_KNH1144 (HIV-1)
[32] = biological target: HIV-1 Env of NAC_WITO.33 (HIV-1)
[33] = biological target: HIV-1 Env of pseudovirus NIH-088_X1632 S2 B10 (clade G) (HIV-1)
[34] = biological target: HIV-1 Env of pseudovirus NIH-050_CNE21 (HIV-1)
[35] = biological target: HIV-1 Env of pseudovirus NIH-074_C4118.c09 (HIV-1)
[36] = biological target: HIV-1 Env of NIH-096_6952.v1.c20 (HIV-1)
[37] = biological target: HIV-1 Env of pseudovirus NAC_92TH021 (HIV-1)
[38] = biological target: HIV-1 Env of pseudovirus NIH-099_3301.v1.c24 (HIV-1)
[39] = biological target: HIV-1 Env of NIH-017_Du156.12 (HIV-1)
[40] = biological target: HIV-1 Env of isolate NIH-083_P0402 c2 11 (HIV-1)
[41] = biological target: HIV-1 Env of pseudovirus NIH-043_ZM249M.B10 (HIV-1)
[42] = biological target: HIV-1 Env of pseudovirus NIH-042_ZM246F.D5 (HIV-1)
[43] = biological target: HIV-1 Env of pseudovirus NIH-060_Q769ENVd22 (HIV-1)
[44] = biological target: HIV-1 Env of pseudovirus NIH-063_0330.v4.c3 (HIV-1)
[45] = biological target: HIV-1 Env of NIH-043_ZM249M.B10 (HIV-1)
[46] = biological target: HIV-1 Env of NIH-070_R2184.c04 (HIV-1)

VRC01 (antibody)
IC80 neutralization [1]: 0.558 µg/mL | neutralization IC50 [2]: 0.565 µg/mL | neutralization IC50 [3]: 0.508 µg/mL | IC80 neutralization [4]: 3.7 µg/mL | neutralization IC50 [5]: 0.141 µg/mL | IC80 neutralization [6]: 0.068 µg/mL | IC80 neutralization [7]: 0.223 µg/mL | neutralization IC50 [8]: 1.96 µg/mL | neutralization IC50 [9]: 0.019 µg/mL | IC80 neutralization [10]: 0.23 µg/mL | neutralization IC50 [11]: 0.063 µg/mL | neutralization IC50 [12]: 0.227 µg/mL | neutralization IC50 [13]: 0.021 µg/mL | neutralization IC50 [14]: 0.025 µg/mL | IC50 (µg/ml), TZM-bl cell neutralization assay, pseudovirus [15]: 0.058 µg/mL | IC80 (µg/ml), TZM-bl pseudovirus neutralization [16]: 0.408 µg/mL | IC80 (µg/ml), TZM-bl pseudovirus neutralization [17]: 0.216 µg/mL | neutralization IC50 [18]: 0.968 µg/mL | IC80 neutralization [19]: 3.3 µg/mL | neutralization IC50 [20]: 0.807 µg/mL | neutralization IC50 [21]: 0.081 µg/mL | IC80 neutralization [22]: 0.79 µg/mL | neutralization IC50 [23]: 0.056 µg/mL | neutralization IC50 [24]: 0.059 µg/mL | neutralization IC50 [25]: 0.042 µg/mL | IC80 neutralization [26]: 0.69 µg/mL | IC80 (µg/ml), TZM-bl pseudovirus neutralization [27]: 0.223 µg/mL | neutralization IC50 [28]: 0.053 µg/mL | IC80 neutralization [29]: 0.595 µg/mL | IC80 neutralization [30]: 2.42 µg/mL | IC80 neutralization [31]: 0.535 µg/mL | IC80 neutralization [32]: 0.228 µg/mL | IC50 (µg/ml), TZM-bl cell neutralization assay, pseudovirus [33]: 0.338 µg/mL | neutralization IC50 [34]: 0.212 µg/mL | neutralization IC50 [35]: 0.05 µg/mL | IC80 neutralization [36]: 0.097 µg/mL | neutralization IC50 [37]: 0.324 µg/mL | neutralization IC50 [38]: 0.112 µg/mL | IC80 neutralization [39]: 0.23 µg/mL | IC80 (µg/ml), TZM-bl pseudovirus neutralization [40]: 0.164 µg/mL | neutralization IC50 [41]: 0.071 µg/mL | neutralization IC50 [42]: 10.7 µg/mL | neutralization IC50 [43]: 0.025 µg/mL | neutralization IC50 [44]: 0.033 µg/mL | IC80 neutralization [45]: 0.275 µg/mL | IC80 neutralization [46]: 0.413 µg/mL

4E10 (antibody)
IC80 neutralization [1]: 17 µg/mL | neutralization IC50 [2]: 0.389 µg/mL | neutralization IC50 [3]: 0.828 µg/mL | IC80 neutralization [4]: 3.29 µg/mL | neutralization IC50 [5]: 17.8 µg/mL | IC80 neutralization [6]: 24.7 µg/mL | IC80 neutralization [7]: 11.6 µg/mL | neutralization IC50 [8]: 6.19 µg/mL | neutralization IC50 [9]: 5.54 µg/mL | IC80 neutralization [10]: 13.5 µg/mL | neutralization IC50 [11]: 0.034 µg/mL | neutralization IC50 [12]: 1.17 µg/mL | neutralization IC50 [13]: 0.248 µg/mL | neutralization IC50 [14]: 0.721 µg/mL | IC50 (µg/ml), TZM-bl cell neutralization assay, pseudovirus [15]: 0.915 µg/mL | IC80 (µg/ml), TZM-bl pseudovirus neutralization [16]: 1.43 µg/mL | IC80 (µg/ml), TZM-bl pseudovirus neutralization [17]: 10.4 µg/mL | neutralization IC50 [18]: 0.097 µg/mL | IC80 neutralization [19]: 10.9 µg/mL | neutralization IC50 [20]: 2.77 µg/mL | neutralization IC50 [21]: 2.06 µg/mL | IC80 neutralization [22]: 38.7 µg/mL | neutralization IC50 [23]: 3.78 µg/mL | neutralization IC50 [24]: 1.34 µg/mL | neutralization IC50 [25]: 0.38 µg/mL | IC80 neutralization [26]: 3.92 µg/mL | IC80 (µg/ml), TZM-bl pseudovirus neutralization [27]: 3.73 µg/mL | neutralization IC50 [28]: 1.59 µg/mL | IC80 neutralization [29]: 12.5 µg/mL | IC80 neutralization [30]: 21.2 µg/mL | IC80 neutralization [31]: 47.9 µg/mL | IC80 neutralization [32]: 1.82 µg/mL | IC50 (µg/ml), TZM-bl cell neutralization assay, pseudovirus [33]: 2.57 µg/mL | neutralization IC50 [34]: 0.513 µg/mL | neutralization IC50 [35]: 0.322 µg/mL | IC80 neutralization [36]: 3.5 µg/mL | neutralization IC50 [37]: 0.348 µg/mL | neutralization IC50 [38]: 20.3 µg/mL | IC80 neutralization [39]: 0.447 µg/mL | IC80 (µg/ml), TZM-bl pseudovirus neutralization [40]: 0.363 µg/mL | neutralization IC50 [41]: 1.11 µg/mL | neutralization IC50 [42]: 1.68 µg/mL | neutralization IC50 [43]: 1.61 µg/mL | neutralization IC50 [44]: 0.963 µg/mL | IC80 neutralization [45]: 4.55 µg/mL | IC80 neutralization [46]: 0.762 µg/mL

PGZL1 (antibody)
IC80 neutralization [1]: > 50 µg/mL | neutralization IC50 [2]: 3.97 µg/mL | neutralization IC50 [3]: 5.77 µg/mL | IC80 neutralization [4]: 4.69 µg/mL | neutralization IC50 [5]: > 50 µg/mL | IC80 neutralization [6]: > 50 µg/mL | IC80 neutralization [7]: > 50 µg/mL | neutralization IC50 [8]: 42 µg/mL | neutralization IC50 [9]: > 50 µg/mL | IC80 neutralization [10]: > 50 µg/mL | neutralization IC50 [11]: 0.055 µg/mL | neutralization IC50 [12]: 4.71 µg/mL | neutralization IC50 [13]: 1.54 µg/mL | neutralization IC50 [14]: 0.89 µg/mL | IC50 (µg/ml), TZM-bl cell neutralization assay, pseudovirus [15]: 2.4 µg/mL | IC80 (µg/ml), TZM-bl pseudovirus neutralization [16]: 21.3 µg/mL | IC80 (µg/ml), TZM-bl pseudovirus neutralization [17]: > 50 µg/mL | neutralization IC50 [18]: 0.424 µg/mL | IC80 neutralization [19]: > 50 µg/mL | neutralization IC50 [20]: 25.3 µg/mL | neutralization IC50 [21]: 13.3 µg/mL | IC80 neutralization [22]: > 50 µg/mL | neutralization IC50 [23]: 21.7 µg/mL | neutralization IC50 [24]: 24.6 µg/mL | neutralization IC50 [25]: 6 µg/mL | IC80 neutralization [26]: > 50 µg/mL | IC80 (µg/ml), TZM-bl pseudovirus neutralization [27]: 10.6 µg/mL | neutralization IC50 [28]: 10.9 µg/mL | IC80 neutralization [29]: > 50 µg/mL | IC80 neutralization [30]: > 50 µg/mL | IC80 neutralization [31]: > 50 µg/mL | IC80 neutralization [32]: 15.1 µg/mL | IC50 (µg/ml), TZM-bl cell neutralization assay, pseudovirus [33]: 15.5 µg/mL | neutralization IC50 [34]: 4.23 µg/mL | neutralization IC50 [35]: 8.37 µg/mL | IC80 neutralization [36]: 4.7 µg/mL | neutralization IC50 [37]: 2.12 µg/mL | neutralization IC50 [38]: > 50 µg/mL | IC80 neutralization [39]: 2.5 µg/mL | IC80 (µg/ml), TZM-bl pseudovirus neutralization [40]: 32.3 µg/mL | neutralization IC50 [41]: 6.26 µg/mL | neutralization IC50 [42]: 19.9 µg/mL | neutralization IC50 [43]: 20.2 µg/mL | neutralization IC50 [44]: 22.1 µg/mL | IC80 neutralization [45]: 25.6 µg/mL | IC80 neutralization [46]: > 50 µg/mL

From patent publication US20240124560A1
